Assay [1] has as its target Ara h 2, purified natural peanut allergen (Arachis hypogaea (peanut), cultivar not …, UniProt Q6PSU2). As to the kind of experiment: BLI. Background: In BLI a coated tip is dipped into the sample, and binding shifts an interference pattern.
The target of assay [2] is Ara h 3, purified natural peanut allergen (Arachis hypogaea (peanut), cultivar not …, UniProt O82580). Kind of assay: BLI.

Positions count from the first letter of the chain named.

B1: PA13P1H08 variant: heavy chain reverted to the inferred naive rearrangement, native light chain (antibody, V domains shown)
VH: QVQLVESGGGVVQPGRSLRLSCAASGFTFSSYGMHWVRQAPGKGLEWVAVISYDGSNKYYADSVKGRFTISRDNSKNTLYLQMNSLRAEDTAVYYCAKVLDYSNYYYYYGMDVWGQGTTVTVSS
VL: EIVLTQSPGTLSLSPGGRGTLSCRTSQTINNAHLAWYQHKPGQAPRLLIYGSSERATGVPDRFSGSGSGSDFTLTISSLEAEDFAVYYCQHYGRSPPYTFGPGTKLDIK
As to B1, the binding result in assay [1] and in assay [2] was “binds” throughout.

B2: PA13P1H08 variant: only the heavy chain CDR3 reverted to the inferred naive rearrangement, native light chain (antibody, V domains shown)
VH: QVQLVNSGGGVVQPGRSLRLSCVASGFTFSTFGIHWVRQAPGKGLEWVAVISNDGEKSESADSVKGRFTPSRDNSKNTVYLQMNNLRVEDTAVYYCAKVLDYSNYYYYYGMDVWGQGTTVIVSS
VL: B1 VL
In the case of B2, the binding result in assay [1] and in assay [2] was “binds” in each case.

B3: PA13P1H08 variant: only the heavy chain framework regions reverted to the inferred naive rearrangement, native light chain (antibody, V domains shown)
VH: B1 VH with S31T, Y32F, Y53N, S56E, N57K, K58S, N104R, Y106S
VL: B1 VL
Regarding B3, the binding result in assay [1] and in assay [2] was “binds” throughout.

B4: PA13P1H08 variant: only the heavy chain CDR2 reverted to the inferred naive rearrangement, native light chain (antibody, V domains shown)
VH: B2 VH with N53Y, E56S, K57N, S58K, N104R, Y106S
VL: B1 VL
For B4, the binding result in assay [1] and in assay [2] was “binds” each time.

B5: PA13P1H08 variant: only the heavy chain CDR1 reverted to the inferred naive rearrangement, native light chain (antibody, V domains shown)
VH: B2 VH with T31S, F32Y, N104R, Y106S
VL: B1 VL
B5: the binding result in assay [1] and in assay [2] was “binds” in each case.

These data come from paper doi:10.1101/327866 (bioRxiv, 2018).
